According to PMC10057847, “Precision engineering of biological function with large-scale measurements and machine learning” (PLOS ONE, 2023):

B1: pVER-IPTG-144: LacI variant: V15I F161I A266T K290R M347I (protein, UniProt P03023 1-360, looked up, variant V15I F161I A266T K290R M347I)
Lactose operon repressor: MKPVTLYDVAEYAGISYQTVSRVVNQASHVSAKTREKVEAAMAELNYIPNRVAQQLAGKQSLLIGVATSSLALHAPSQIVAAIKSRADQLGASVVVSMVERSGVEACKAAVHNLLAQRVSGLIINYPLDDQDAIAVEAACTNVPALFLDVSDQTPINSIIISHEDGTRLGVEHLVALGHQQIALLAGPLSSVSARLRLAGWHKYLTRNQIQPIAEREGDWSAMSGFQQTMQMLNEGIVPTAMLVANDQMALGAMRAITESGLRVGTDISVVGYDDTEDSSCYIPPLTTIRQDFRLLGQTSVDRLLQLSQGQAVKGNQLLPVSLVKRKTTLAPNTQTASPRALADSLIQLARQVSRLESGQ
B2: pVER-IPTG-002(V136E): LacI variant: V96E V136E T154I S158R V238D M254I V264I (protein, UniProt P03023 1-360, looked up, variant V96E V136E T154I S158R V238D M254I V264I)
Lactose operon repressor: MKPVTLYDVAEYAGVSYQTVSRVVNQASHVSAKTREKVEAAMAELNYIPNRVAQQLAGKQSLLIGVATSSLALHAPSQIVAAIKSRADQLGASVVESMVERSGVEACKAAVHNLLAQRVSGLIINYPLDDQDAIAEEAACTNVPALFLDVSDQIPINRIIFSHEDGTRLGVEHLVALGHQQIALLAGPLSSVSARLRLAGWHKYLTRNQIQPIAEREGDWSAMSGFQQTMQMLNEGIDPTAMLVANDQMALGAIRAITESGLRIGADISVVGYDDTEDSSCYIPPLTTIKQDFRLLGQTSVDRLLQLSQGQAVKGNQLLPVSLVKRKTTLAPNTQTASPRALADSLMQLARQVSRLESGQ
B3: pVER-IPTG-003: LacI variant: V52M H74Y V119I G200V R207H L262M K290R Q306H A337V Q352* (protein, UniProt P03023 1-360, looked up, variant V52M H74Y V119I G200V R207H L262M K290R Q306H A337V Q352*)
Lactose operon repressor: MKPVTLYDVAEYAGVSYQTVSRVVNQASHVSAKTREKVEAAMAELNYIPNRMAQQLAGKQSLLIGVATSSLALYAPSQIVAAIKSRADQLGASVVVSMVERSGVEACKAAVHNLLAQRISGLIINYPLDDQDAIAVEAACTNVPALFLDVSDQTPINSIIFSHEDGTRLGVEHLVALGHQQIALLAGPLSSVSARLRLAVWHKYLTHNQIQPIAEREGDWSAMSGFQQTMQMLNEGIVPTAMLVANDQMALGAMRAITESGMRVGADISVVGYDDTEDSSCYIPPLTTIRQDFRLLGQTSVDRLLHLSQGQAVKGNQLLPVSLVKRKTTLAPNTQTVSPRALADSLMQLARVSRLESGQ
B4: pVER-IPTG-084: LacI variant: A92I S269T N333H L346* (protein, UniProt P03023 1-360, looked up, variant A92I S269T N333H L346*)
Lactose operon repressor: MKPVTLYDVAEYAGVSYQTVSRVVNQASHVSAKTREKVEAAMAELNYIPNRVAQQLAGKQSLLIGVATSSLALHAPSQIVAAIKSRADQLGISVVVSMVERSGVEACKAAVHNLLAQRVSGLIINYPLDDQDAIAVEAACTNVPALFLDVSDQTPINSIIFSHEDGTRLGVEHLVALGHQQIALLAGPLSSVSARLRLAGWHKYLTRNQIQPIAEREGDWSAMSGFQQTMQMLNEGIVPTAMLVANDQMALGAMRAITESGLRVGADITVVGYDDTEDSSCYIPPLTTIKQDFRLLGQTSVDRLLQLSQGQAVKGNQLLPVSLVKRKTTLAPHTQTASPRALADSMQLARQVSRLESGQ
B5: pVER-IPTG-138: LacI variant: S28G T34M Q60R A81S E100K L148V S221N V271L (protein, UniProt P03023 1-360, looked up, variant S28G T34M Q60R A81S E100K L148V S221N V271L)
Lactose operon repressor: MKPVTLYDVAEYAGVSYQTVSRVVNQAGHVSAKMREKVEAAMAELNYIPNRVAQQLAGKRSLLIGVATSSLALHAPSQIVSAIKSRADQLGASVVVSMVKRSGVEACKAAVHNLLAQRVSGLIINYPLDDQDAIAVEAACTNVPALFVDVSDQTPINSIIFSHEDGTRLGVEHLVALGHQQIALLAGPLSSVSARLRLAGWHKYLTRNQIQPIAEREGDWNAMSGFQQTMQMLNEGIVPTAMLVANDQMALGAMRAITESGLRVGADISVLGYDDTEDSSCYIPPLTTIKQDFRLLGQTSVDRLLQLSQGQAVKGNQLLPVSLVKRKTTLAPNTQTASPRALADSLMQLARQVSRLESGQ
B6: pVER-IPTG-206: LacI variant: V95M A337T (protein, UniProt P03023 1-360, looked up, variant V95M A337T)
Lactose operon repressor: MKPVTLYDVAEYAGVSYQTVSRVVNQASHVSAKTREKVEAAMAELNYIPNRVAQQLAGKQSLLIGVATSSLALHAPSQIVAAIKSRADQLGASVMVSMVERSGVEACKAAVHNLLAQRVSGLIINYPLDDQDAIAVEAACTNVPALFLDVSDQTPINSIIFSHEDGTRLGVEHLVALGHQQIALLAGPLSSVSARLRLAGWHKYLTRNQIQPIAEREGDWSAMSGFQQTMQMLNEGIVPTAMLVANDQMALGAMRAITESGLRVGADISVVGYDDTEDSSCYIPPLTTIKQDFRLLGQTSVDRLLQLSQGQAVKGNQLLPVSLVKRKTTLAPNTQTTSPRALADSLMQLARQVSRLESGQ
B7: pVER-IPTG-WT(G200C): LacI variant: G200C (protein, UniProt P03023 1-360, looked up, variant G200C)
Lactose operon repressor: MKPVTLYDVAEYAGVSYQTVSRVVNQASHVSAKTREKVEAAMAELNYIPNRVAQQLAGKQSLLIGVATSSLALHAPSQIVAAIKSRADQLGASVVVSMVERSGVEACKAAVHNLLAQRVSGLIINYPLDDQDAIAVEAACTNVPALFLDVSDQTPINSIIFSHEDGTRLGVEHLVALGHQQIALLAGPLSSVSARLRLACWHKYLTRNQIQPIAEREGDWSAMSGFQQTMQMLNEGIVPTAMLVANDQMALGAMRAITESGLRVGADISVVGYDDTEDSSCYIPPLTTIKQDFRLLGQTSVDRLLQLSQGQAVKGNQLLPVSLVKRKTTLAPNTQTASPRALADSLMQLARQVSRLESGQ
B8: pVER-IPTG-WT(F161V): LacI variant: F161V (protein, UniProt P03023 1-360, looked up, variant F161V)
Lactose operon repressor: MKPVTLYDVAEYAGVSYQTVSRVVNQASHVSAKTREKVEAAMAELNYIPNRVAQQLAGKQSLLIGVATSSLALHAPSQIVAAIKSRADQLGASVVVSMVERSGVEACKAAVHNLLAQRVSGLIINYPLDDQDAIAVEAACTNVPALFLDVSDQTPINSIIVSHEDGTRLGVEHLVALGHQQIALLAGPLSSVSARLRLAGWHKYLTRNQIQPIAEREGDWSAMSGFQQTMQMLNEGIVPTAMLVANDQMALGAMRAITESGLRVGADISVVGYDDTEDSSCYIPPLTTIKQDFRLLGQTSVDRLLQLSQGQAVKGNQLLPVSLVKRKTTLAPNTQTASPRALADSLMQLARQVSRLESGQ
B9: pVER-IPTG-WT(I83M): LacI variant: I83M (protein, UniProt P03023 1-360, looked up, variant I83M)
Lactose operon repressor: MKPVTLYDVAEYAGVSYQTVSRVVNQASHVSAKTREKVEAAMAELNYIPNRVAQQLAGKQSLLIGVATSSLALHAPSQIVAAMKSRADQLGASVVVSMVERSGVEACKAAVHNLLAQRVSGLIINYPLDDQDAIAVEAACTNVPALFLDVSDQTPINSIIFSHEDGTRLGVEHLVALGHQQIALLAGPLSSVSARLRLAGWHKYLTRNQIQPIAEREGDWSAMSGFQQTMQMLNEGIVPTAMLVANDQMALGAMRAITESGLRVGADISVVGYDDTEDSSCYIPPLTTIKQDFRLLGQTSVDRLLQLSQGQAVKGNQLLPVSLVKRKTTLAPNTQTASPRALADSLMQLARQVSRLESGQ

System: eYFP under the control of the lactose operator (lacO)
Experiment: in vivo dose-response curves of LacI variants to IPTG measured with flow cytometry (eYFP output), fit to the Hill equation
Assay type: cell-based, E. coli
Conditions: Hill fit of cytometry data; for n: the Hill coefficient: IPTG dose-response; for log_g0: the base-10 logarithm of G0 (in MEF): basal output; for log_g0: the base-10 logarithm of G0 (in MEF) / log_ginf: the base-10 logarithm of G∞ (in MEF): value is log10; for log_ginf: the base-10 logarithm of G∞ (in MEF): saturating output
Experimental: Dose-response curves were measured with flow cytometry using E. coli MG1655Δlac transformed with variants of the pVER plasmid, described previously. The plasmid contained different variants of the lacI coding DNA sequence (CDS), as described in the text, and an expression cassette with enhanced yellow fluorescent protein (eYFP) under the control of the lactose operator (lacO). The lacI CDS was verified with Sanger sequencing for each variant.
All cultures were grown in a rich M9 media (3 g/L KH2PO4, 6.78 g/L Na2HPO4, 0.5 g/L NaCl, 1 g/L NH4Cl, 0.1 mmol/L CaCl2, 2 mmol/L MgSO4, 4% glycerol, and 20 g/L casamino acids) supplemented with 50 μg/mL kanamycin.
For flow cytometry measurements, E. coli cultures were grown in a laboratory automation system that included an automated liquid handler (Hamilton, STAR), an automated plate sealer (4titude, a4S), an automated de-sealer (Brooks, XPeel), and two multi-mode plate readers (BioTek, Neo2SM).
Cultures were grown in clear polystyrene 96-well plates with 1.1 mL square wells (4titude, 4ti-0255). The culture volume per well was 0.5 mL. Before incubation, each 96-well growth plate was sealed by the automated plate sealer with a gas permeable membrane (4titude, 4ti-0598). Growth plates were incubated in one of the multi-mode plate readers at 37°C with a 1°C gradient applied from the bottom to the top of the incubation chamber to minimize condensation on the inside of the membrane. The plate readers were set for double-orbital shaking at 807 cycles per minute. Optical density at 600 nm (OD600) was measured every 5 minutes during incubation, with continuous shaking applied between measurements (optical density at 700 nm and YFP fluorescence were also measured every 5 minutes). After incubation, the automated de-sealer was used to remove the gas-permeable membrane from each 96-well plate to enable automated passaging of cultures and sample preparation for flow cytometry measurements.
For each measurement, starter cultures were prepared from glycerol freezer stock in 5 mL of rich M9 media in a 14 mL snap-cap culture tubes. Starter cultures were incubated at 37°C with orbital shaking at 300 rpm for between 4 h and 24 h prior to loading the automation system. The automation system then prepared 96-well growth plates, sealed and de-sealed the growth plates, incubated the growth plates, and prepared flow cytometry sample plates. The automated culture protocol consisted of the following steps: […]

Molecule	n: the Hill coefficient	log_g0: the base-10 logarithm of G0 (in MEF) (posterior mean)	log_ginf: the base-10 logarithm of G∞ (in MEF) (posterior mean)	EC50 (IPTG as ligand, posterior mean, read-out: log_ec50: the base-10 logarithm of EC50 (converted))
B1	1.459	–	–	–
B2	2.088	4.551 MEF	1.924 MEF	–
B3	0.7133	4.508 MEF	3.573 MEF	–
B4	1.53	3.264 MEF	4.457 MEF	1.52 µM
B5	–	–	4.407 MEF	–
B6	1.594	–	–	–
B7	–	–	4.489 MEF	–
B8	1.594	–	–	–
B9	–	–	4.268 MEF	–
